Reference: patent US20170082633A1 (WHITEHEAD INSTITUTE FOR BIOMEDICAL RESEARCH, published 2017)
Substitutions are numbered along the chain they refer to. In names and notes the source's numbering stands.

Key:
[1] = target: T1, co-expressed epitope tagged Ragulator proteins (UniProt Q6IAA8 2-161; Q9Y2Q5 1-125; Q9UHA4 1-124; Q0VGL1 1-99; O43504 1-91); experiment: co-immunoprecipitation from HEK-293T cells, immunoblot
Procedure: (§1) Transfection mixes were taken up to a total of 5 μg of DNA using empty pRK5. HEK-293T cells stably expressing FLAG-tagged proteins were rinsed once with ice-cold PBS and lysed in ice-cold lysis buffer (40 mM HEPES pH 7.4, 1% Triton X-100, 10 mM β-glycerol phosphate, 10 mM pyrophosphate, 2.5 mM MgC12 and 1 tablet of EDTA-free protease inhibitor (Roche) per 25 ml buffer). The soluble fractions from cell lysates were isolated by centrifugation at 13,000 rpm for 10 min in a microcentrifuge. […] Immunoprecipitates were washed three times with lysis buffer containing 500 mM NaCl. Immunoprecipitated proteins were denatured by the addition of 50 μL of sample buffer and incubation at RT for 30 min. It is critical that the samples containing SLC38A9 are neither boiled nor frozen prior to resolution by SDS-PAGE and analysis by immunoblotting. A similar protocol was employed when preparing samples for mass spectrometry.

endogenous Ragulator [2] = target: T2, endogenous Ragulator (UniProt Q6IAA8 2-161; Q9Y2Q5 1-125; Q9UHA4 1-124; Q0VGL1 1-99; O43504 1-91); experiment: as above
Procedure: as §1

endogenous p14 = target: T3, endogenous p14 (UniProt Q9Y2Q5 1-125); experiment: FLAG IP from transfected HEK-293T cells, immunoblot
T3 construct: Detected by immunoblot in anti-FLAG immunoprecipitates; also called LAMTOR2
Procedure: (§2) HEK-293T cells were cultured in DMEM supplemented with 10% inactivated fetal bovine serum, penicillin (100 IU/mL), and streptomycin (100 μg/mL) and maintained at 37° C. and 5% CO₂. Two million HEK-293T cells were plated in 10 cm culture dishes.
as §1

endogenous RagC [3] = target: T4, endogenous RagC (UniProt Q9HB90 2-399); experiment: as above
T4 construct: Detected by immunoblot in anti-FLAG immunoprecipitates; also called RagC GTPase
T4 sequence (Q9HB90 2-399 limits assumed): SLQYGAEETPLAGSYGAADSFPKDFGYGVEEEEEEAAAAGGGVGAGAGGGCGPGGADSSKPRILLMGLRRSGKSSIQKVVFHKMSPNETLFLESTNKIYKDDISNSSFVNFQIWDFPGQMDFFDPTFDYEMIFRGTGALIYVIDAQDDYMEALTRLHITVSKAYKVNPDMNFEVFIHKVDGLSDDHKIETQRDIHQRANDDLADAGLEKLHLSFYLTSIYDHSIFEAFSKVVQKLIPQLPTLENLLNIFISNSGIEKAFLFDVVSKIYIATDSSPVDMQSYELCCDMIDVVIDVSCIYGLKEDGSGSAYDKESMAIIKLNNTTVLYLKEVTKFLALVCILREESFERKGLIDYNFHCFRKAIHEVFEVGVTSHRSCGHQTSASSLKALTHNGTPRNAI
Procedure: as §2, §1

endogenous p18 [4] = target: T5, endogenous p18 (UniProt Q6IAA8 2-161); experiment: as above
T5 construct: Detected by immunoblot in anti-FLAG immunoprecipitates; also called LAMTOR1
Procedure: as §2, §1

endogenous RagA = target: T6, endogenous RagA (UniProt Q7L523 1-313); experiment: as above
T6 construct: Detected by immunoblot in anti-FLAG immunoprecipitates; also called RagA GTPase
T6 sequence (Q7L523 whole entry): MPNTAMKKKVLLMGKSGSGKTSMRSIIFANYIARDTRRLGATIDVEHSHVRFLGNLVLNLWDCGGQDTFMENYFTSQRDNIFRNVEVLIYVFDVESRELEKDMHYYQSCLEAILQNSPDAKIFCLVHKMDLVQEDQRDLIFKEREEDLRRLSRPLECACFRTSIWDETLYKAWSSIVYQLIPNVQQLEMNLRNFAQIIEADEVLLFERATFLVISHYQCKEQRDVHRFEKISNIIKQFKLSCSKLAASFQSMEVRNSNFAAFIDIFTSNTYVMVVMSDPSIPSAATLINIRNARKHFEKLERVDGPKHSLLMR
Procedure: as §2, §1

endogenous Ragulator [5] = target: T2, endogenous Ragulator; experiment: anti-FLAG co-immunoprecipitation from HEK-293T cells, immunoblot
Procedure: as §2, §1

[6] = target: T1, co-expressed epitope tagged Ragulator …; experiment: FLAG IP (FLAG-p14) from HEK-293T cells co-transfected with the HA-tagged Ragulator components and HA-SLC38A9.4; immunoblot
endogenous RagC [7] = target: T4, endogenous RagC; experiment: FLAG IP from HEK-293T cells stably expressing the bait, immunoblot
Procedure: as §1

endogenous p18 [8] = target: T5, endogenous p18; experiment: as above
Procedure: as §1

B1: FLAG-SLC38A9.1 Δ110 (other)
chain: DYKDDDDKTEGYGKNTSLVTIFMIWNTMMGTSILSIPWGIKQAGFTTGMCVIILMGLLTLYCCYRVVKSRTMMFSLDTTSWEYPDVCRHYFGSFGQWSSLLFSLVSLIGAMIVYWVLMSNFLFNTGKFIFNFIHHINDTDTILSTNNSNPVICPSAGSGGHPDNSSMIFYANDTGAQQFEKWWDKSRTVPFYLVGLLLPLLNFKSPSFFSKFNILGTVSVLYLIFLVTFKAVRLGFHLEFHWFIPTEFFVPEIRFQFPQLTGVLTLAFFIHNCIITLLKNNKKQENNVRDLCIAYMLVTLTYLYIGVLVFASFPSPPLSKDCIEQNFLDNFPSSDTLSFIARIFLLFQMMTVYPLLGYLARVQLLGHIFGDIYPSIFHVLILNLIIVGAGVIMACFYPNIGGIIRYSGAACGLAFVFIYPSLIYIISLHQEERLTWPKLIFHVFIIILGVANLIVQFFM
notes: also called SLC38A9 Δ110
binding result [1]: no binding
binding result (endogenous Ragulator [2]): no binding

B2: FLAG-SLC38A9.1 L74A (other)
single chain: MANMNSDSRHLGTSEVDHERDPGPMNIQFEPSDLRSKRPFCIEPTNIVNVNHVIQRVSDHASAMNKRIHYYSRATTPADKALIAPDHVVPAPEECYVYSPLGSAYKLQSYTEGYGKNTSLVTIFMIWNTMMGTSILSIPWGIKQAGFTTGMCVIILMGLLTLYCCYRVVKSRTMMFSLDTTSWEYPDVCRHYFGSFGQWSSLLFSLVSLIGAMIVYWVLMSNFLFNTGKFIFNFIHHINDTDTILSTNNSNPVICPSAGSGGHPDNSSMIFYANDTGAQQFEKWWDKSRTVPFYLVGLLLPLLNFKSPSFFSKFNILGTVSVLYLIFLVTFKAVRLGFHLEFHWFIPTEFFVPEIRFQFPQLTGVLTLAFFIHNCIITLLKNNKKQENNVRDLCIAYMLVTLTYLYIGVLVFASFPSPPLSKDCIEQNFLDNFPSSDTLSFIARIFLLFQMMTVYPLLGYLARVQLLGHIFGDIYPSIFHVLILNLIIVGAGVIMACFYPNIGGIIRYSGAACGLAFVFIYPSLIYIISLHQEERLTWPKLIFHVFIIILGVANLIVQFFM
binding result (endogenous p14): no binding
binding result (endogenous RagC [3]): no binding
binding result (endogenous p18 [4]): no binding
binding result (endogenous RagA): no binding

B3: FLAG-SLC38A9.1 P85A (other)
single chain: B2 single chain with A74L, P85A
notes: Full-length mutant
binding result (endogenous p14): no binding
binding result (endogenous RagC [3]): no binding
binding result (endogenous p18 [4]): no binding
binding result (endogenous RagA): no binding

B4: FLAG-SLC38A9.1 P90A (other)
single chain: B2 single chain with A74L, P90A
notes: Full-length mutant
binding result (endogenous p14): no binding
binding result (endogenous RagC [3]): no binding
binding result (endogenous p18 [4]): no binding
binding result (endogenous RagA): no binding

B5: FLAG-SLC38A9.1 Y71A (other)
single chain: B2 single chain with Y71A, A74L
notes: Full-length mutant
binding result (endogenous p14): no binding
binding result (endogenous RagC [3]): no binding
binding result (endogenous p18 [4]): no binding
binding result (endogenous RagA): no binding

B6: FLAG-SLC38A9.1 (other)
chain: DYKDDDDKMANMNSDSRHLGTSEVDHERDPGPMNIQFEPSDLRSKRPFCIEPTNIVNVNHVIQRVSDHASAMNKRIHYYSRLTTPADKALIAPDHVVPAPEECYVYSPLGSAYKLQSYTEGYGKNTSLVTIFMIWNTMMGTSILSIPWGIKQAGFTTGMCVIILMGLLTLYCCYRVVKSRTMMFSLDTTSWEYPDVCRHYFGSFGQWSSLLFSLVSLIGAMIVYWVLMSNFLFNTGKFIFNFIHHINDTDTILSTNNSNPVICPSAGSGGHPDNSSMIFYANDTGAQQFEKWWDKSRTVPFYLVGLLLPLLNFKSPSFFSKFNILGTVSVLYLIFLVTFKAVRLGFHLEFHWFIPTEFFVPEIRFQFPQLTGVLTLAFFIHNCIITLLKNNKKQENNVRDLCIAYMLVTLTYLYIGVLVFASFPSPPLSKDCIEQNFLDNFPSSDTLSFIARIFLLFQMMTVYPLLGYLARVQLLGHIFGDIYPSIFHVLILNLIIVGAGVIMACFYPNIGGIIRYSGAACGLAFVFIYPSLIYIISLHQEERLTWPKLIFHVFIIILGVANLIVQFFM
notes: Lysosomal membrane amino acid transporter, expressed in HEK-293T cells and immunoprecipitated from Triton X-100 lysate with anti-FLAG gel; also called SLC38A9 isoform 1; full-length SLC38A9
binding result (endogenous Ragulator [5]): binds

B7: HA-SLC38A9.4 (other)
single chain: LVTIFMIWNTMMGTSILSIPWGIKQAGFTTGMCVIILMGLLTLYCCYRVVKSRTMMFSLDTTSWEYPDVCRHYFGSFGQWSSLLFSLVSLIGAMIVYWVLMSNFLFNTGKFIFNFIHHINDTDTILSTNNSNPVICPSAGSGGHPDNSSMIFYANDTGAQQFEKWWDKSRTVPFYLVGLLLPLLNFKSPSFFSKFNILGTVSVLYLIFLVTFKAVRLGFHLEFHWFIPTEFFVPEIRFQFPQLTGVLTLAFFIHNCIITLLKNNKKQENNVRDLCIAYMLVTLTYLYIGVLVFASFPSPPLSKDCIEQNFLDNFPSSDTLSFIARIFLLFQMMTVYPLLGYLARVQLLGHIFGDIYPSIFHVLILNLIIVGAGVIMACFYPNIGGIIRYSGAACGLAFVFIYPSLIYIISLHQEERLTWPKLIFHVFIIILGVANLIVQFFM
notes: also called HA-tagged SLC38A9 isoform 4
binding result [6]: no binding

B8: FLAG-LAMP1 (other)
chain: DYKDDDDKAMFMVKNGNGTACIMANFSAAFSVNYDTKSGPKNMTFDLPSDATVVLNRSSCGKENTSDPSLVIAFGRGHTLTLNFTRNATRYSVQLMSFVYNLSDTHLFPNASSKEIKTVESITDIRADIDKKYRCVSGTQVHMNNVTVTLHDATIQAYLSNSSFSRGETRCEQDRPSPTTAPPAPPSPSPSPVPKSPSVDKYNVSGTNGTCLLASMGLQLNLTYERKDNTTVTRLLNINPNKTSASGSCGAHLVTLELHSEGTTVLLFQFGMNASSSRFFLQGIQLNTILPDARDPAFKAANGSLRALQATVGNSYKCNAEEHVRVTKAFSVNIFKVWVQAFKVEGGQFGSVEECLLDENSMLIPIAVGGALAGLVLIVLIAYLVGRKRSHAGYQTI
notes: Control lysosomal membrane protein
binding result (endogenous RagC [3]): no binding

B9: FLAG-SLC38A9.4 (other)
chain: DYKDDDDKLVTIFMIWNTMMGTSILSIPWGIKQAGFTTGMCVIILMGLLTLYCCYRVVKSRTMMFSLDTTSWEYPDVCRHYFGSFGQWSSLLFSLVSLIGAMIVYWVLMSNFLFNTGKFIFNFIHHINDTDTILSTNNSNPVICPSAGSGGHPDNSSMIFYANDTGAQQFEKWWDKSRTVPFYLVGLLLPLLNFKSPSFFSKFNILGTVSVLYLIFLVTFKAVRLGFHLEFHWFIPTEFFVPEIRFQFPQLTGVLTLAFFIHNCIITLLKNNKKQENNVRDLCIAYMLVTLTYLYIGVLVFASFPSPPLSKDCIEQNFLDNFPSSDTLSFIARIFLLFQMMTVYPLLGYLARVQLLGHIFGDIYPSIFHVLILNLIIVGAGVIMACFYPNIGGIIRYSGAACGLAFVFIYPSLIYIISLHQEERLTWPKLIFHVFIIILGVANLIVQFFM
notes: also called SLC38A9 isoform 4; isoform 4
binding result [1]: no binding
binding result (endogenous Ragulator [2]): no binding

B10: FLAG-SLC38A9.2 (other)
chain: DYKDDDDKMNKRIHYYSRLTTPADKALIAPDHVVPAPEECYVYSPLGSAYKLQSYTEGYGKNTSLVTIFMIWNTMMGTSILSIPWGIKQAGFTTGMCVIILMGLLTLYCCYRVVKSRTMMFSLDTTSWEYPDVCRHYFGSFGQWSSLLFSLVSLIGAMIVYWVLMSNFLFNTGKFIFNFIHHINDTDTILSTNNSNPVICPSAGSGGHPDNSSMIFYANDTGAQQFEKWWDKSRTVPFYLVGLLLPLLNFKSPSFFSKFNILGTVSVLYLIFLVTFKAVRLGFHLEFHWFIPTEFFVPEIRFQFPQLTGVLTLAFFIHNCIITLLKNNKKQENNVRDLCIAYMLVTLTYLYIGVLVFASFPSPPLSKDCIEQNFLDNFPSSDTLSFIARIFLLFQMMTVYPLLGYLARVQLLGHIFGDIYPSIFHVLILNLIIVGAGVIMACFYPNIGGIIRYSGAACGLAFVFIYPSLIYIISLHQEERLTWPKLIFHVFIIILGVANLIVQFFM
notes: also called SLC38A9 isoform 2; isoform 2
binding result [1]: no binding
binding result (endogenous Ragulator [2]): no binding

B11: FLAG-N-terminal 119 fragment of SLC38A9.1 (other)
chain: DYKDDDDKMANMNSDSRHLGTSEVDHERDPGPMNIQFEPSDLRSKRPFCIEPTNIVNVNHVIQRVSDHASAMNKRIHYYSRLTTPADKALIAPDHVVPAPEECYVYSPLGSAYKLQSYTEGYGKNTS
binding result (endogenous Ragulator [5]): binds
binding result (endogenous RagA): binds
binding result (endogenous RagC [7]): binds
binding result (endogenous p18 [8]): binds
